We go through 39 molecules from patent publication US20260042834A1 (HBM ALPHA THERAPEUTICS, published 2026).

Where a chain is given by its changes, count along the chain named. Read-outs that look alike come from different tables or passages of the source.

Test [1] concerns the target T1, corticotropin-releasing hormone (CRH) peptide (human and mouse (same sequence), not fully specified).
T1 peptide: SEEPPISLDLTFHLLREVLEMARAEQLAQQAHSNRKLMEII
In words: cell-based or functional assay.

Test [2] has as its target T1, corticotropin-releasing hormone (CRH) …. In words: cell-based or functional assay.

B1: PR302341-13 (antibody, human IgG1, kappa, V domains shown)
VH: QVQLVQSGAEVKKPGASVKVSCKASGYTFTDYFMKWVRQAPGQGLEWMGVINPNNGDIFYNQKFKGRVTMTRDTSTSTVYMELSSLRSEDTAVYYCARGTDRALFAYWGQGTLVTVSS
VL: DVLMTQTPLSLPVSLGDQASISCRSGQSIVHSDGNTYLEWYLQRPGQSPRLLIYKVSNRFSGVPDRFSGSGSGTDFTLKISRVGAEDLGIYYCFQGSHIPWTFGGGTKLEVKR
For B1, the “hCRHR1 Luciferase Reporter Assay IC50” value in test [1] amounted to 0.124 nM.

B2: PR302341-18 (antibody, human IgG1, kappa, V domains shown)
VH: B1 VH with R72V, T74K, T76I, V79A, S85R, E89D
VL: B1 VL
On to B2, for which the “hCRHR1 Luciferase Reporter Assay IC50” value in test [1] was found to be 0.169 nM.

B3: PR302341-17 (antibody, human IgG1, kappa, V domains shown)
VH: B1 VH with T76I, V79A, S85R, E89D
VL: B1 VL
As to B3, in test [1], the “hCRHR1 Luciferase Reporter Assay IC50” value turned out to be 0.104 nM.

B4: PR302341-16 (antibody, human IgG1, kappa, V domains shown)
VH: B1 VH with G44R, M70I, R72V, T74K, T76A, V79A
VL: B1 VL
With B4, the “hCRHR1 Luciferase Reporter Assay IC50” value in test [1] stood at 0.225 nM.

B5: PR302341-15 (antibody, human IgG1, kappa, V domains shown)
VH: B1 VH with G44R, M70I, T76A, V79A
VL: B1 VL
In the case of B5, the “hCRHR1 Luciferase Reporter Assay IC50” value in test [1] is 0.124 nM.

B6: PR302341-14 (antibody, human IgG1, kappa, V domains shown)
VH: B1 VH with R72V, T74K, V79A
VL: B1 VL
On to B6, for which the “hCRHR1 Luciferase Reporter Assay IC50” value in test [1] turned out to be 0.075 nM.

B7: PR302341-1 (antibody, human IgG1, kappa, V domains shown)
VH: EVQLQQSGPELVKPGASVKMSCKASGYTFTDYFMKWVKQSHGESLEWIGVINPNNGDIFYNQKFKGKATLTVDKSSSTAFMQLNSLTSEDSAVYSCARGTDRALFAYWGQGTLVAVSA
VL: DVVMTQSPLSLPVTLGQPASISCRSGQSIVHSDGNTYLEWFQQRPGQSPRRLIYKVSNRFSGVPDRFSGSGSGTDFTLKISRVEAEDVGVYYCFQGSHIPWTFGGGTKVEIKR
As for B7, in test [1], the “hCRHR1 Luciferase Reporter Assay IC50” value was 0.397 nM.

B8: PR302341-30 (antibody, human IgG1, kappa, V domains shown)
VH: B1 VH with R72V, T74K, T76I, V79A, S85R, E89D
VL: B7 VL with D33E, F41Y, R51L, V88L
Consider B8, for which the “hCRHR1 Luciferase Reporter Assay IC50” value in test [2] worked out at 0.457 nM.

B9: PR302341-37 (antibody, human IgG1, kappa, V domains shown)
VH: B1 VH with N55S, R72V, T74K, T76I, V79A, S85R, E89D
VL: B7 VL with G34A, F41Y, R51L, V88L
For B9, in test [2], the “hCRHR1 Luciferase Reporter Assay IC50” value came to 0.792 nM and the “mCrhr1 Luciferase Reporter Assay IC50” value was determined as 1.29 nM.

B10: PR302341-31 (antibody, human IgG1, kappa, V domains shown)
VH: B1 VH with R72V, T74K, T76I, V79A, S85R, E89D
VL: B7 VL with G34A, F41Y, R51L, V88L
As for B10, the “hCRHR1 Luciferase Reporter Assay IC50” value in test [2] was 0.498 nM.

B11: PR302341-70 (antibody, human IgG1, kappa, V domains shown)
VH: B1 VH with G44R, M70I, T76A, V79A
VL: B7 VL with G34A, F41Y, R51L, V88L
B11: the “hCRHR1 Luciferase Reporter Assay IC50” value in test [2] was 1.6 nM.

B12: PR302341-41 (antibody, human IgG1, kappa, V domains shown)
VH: B1 VH with N55S, R72V, T74K, T76I, V79A, S85R, E89D
VL: B7 VL with F41Y, R51L, V88L
Take B12: the “hCRHR1 Luciferase Reporter Assay IC50” value in test [2] was found to be 0.471 nM.

B13: PR302341-34 (antibody, human IgG1, kappa, V domains shown)
VH: B1 VH with N55Q, R72V, T74K, T76I, V79A, S85R, E89D
VL: B7 VL with G34A, F41Y, R51L, V88L
Turning to B13, in test [2], the “hCRHR1 Luciferase Reporter Assay IC50” value stood at 0.616 nM and the “mCrhr1 Luciferase Reporter Assay IC50” value worked out at 2.19 nM.

B14: PR302341-28 (antibody, human IgG1, kappa, V domains shown)
VH: B1 VH with N55Q, R72V, T74K, T76I, V79A, S85R, E89D
VL: B7 VL with F41Y, R51L, V88L
With B14, in test [2], the “hCRHR1 Luciferase Reporter Assay IC50” value was determined as 0.267 nM and the “mCrhr1 Luciferase Reporter Assay IC50” value worked out at 2.43 nM.

B15: PR302341-12 (antibody, human IgG1, kappa, V domains shown)
VH: B1 VH with R72V, T74K, V79A
VL: B7 VL with S7T, P12S, L15P, F41Y, Q42L, R44K, R50Q, R51L, V88L
Regarding B15, the “hCRHR1 Luciferase Reporter Assay IC50” value in test [1] was 0.25 nM.

B16: PR302341-32 (antibody, human IgG1, kappa, V domains shown)
VH: B1 VH with N55Q, R72V, T74K, T76I, V79A, S85R, E89D
VL: B7 VL with D33E, F41Y, R51L, V88L
For the molecule B16, the “hCRHR1 Luciferase Reporter Assay IC50” value in test [2] worked out at 1.89 nM.

B17: PR302341-71 (antibody, human IgG1, kappa, V domains shown)
VH: B1 VH with G44R, M70I, T76A, V79A
VL: B7 VL with D33E, F41Y, R51L, V88L
As to B17, in test [2], the “hCRHR1 Luciferase Reporter Assay IC50” value was found to be 2.01 nM.

B18: PR302341-8 (antibody, human IgG1, kappa, V domains shown)
VH: B1 VH with R72V, T74K, V79A
VL: B7 VL with F41Y, R51L, V88L
For B18, in test [1], the “hCRHR1 Luciferase Reporter Assay IC50” value was determined as 0.165 nM and the “mCrhr1 Luciferase Reporter Assay IC50” value was found to be 0.357 nM.

B19: PR302341-65 (antibody, human IgG1, kappa, V domains shown)
VH: B1 VH with G44R, N55S, M70I, T76A, V79A
VL: B7 VL with D33S, F41Y, R51L, V88L
B19: the “hCRHR1 Luciferase Reporter Assay IC50” value in test [2] was 3.12 nM.

B20: PR302341-33 (antibody, human IgG1, kappa, V domains shown)
VH: B1 VH with G56A, R72V, T74K, T76I, V79A, S85R, E89D
VL: B7 VL with G34A, F41Y, R51L, V88L
On to B20, for which, in test [2], the “hCRHR1 Luciferase Reporter Assay IC50” value was 0.821 nM and the “mCrhr1 Luciferase Reporter Assay IC50” value was 1.66 nM.

B21: PR302341-11 (antibody, human IgG1, kappa, V domains shown)
VH: B1 VH with R72V, T74K, V79A
VL: B7 VL with V2I, S7T, P12S, L15P, F41Y, Q42L, R44K, R50Q, R51L
B21: the “hCRHR1 Luciferase Reporter Assay IC50” value in test [1] is 0.467 nM.

B22: PR302341-40 (antibody, human IgG1, kappa, V domains shown)
VH: B1 VH with N55S, R72V, T74K, T76I, V79A, S85R, E89D
VL: B7 VL with D33S, F41Y, R51L, V88L
Turning to B22, in test [2], the “hCRHR1 Luciferase Reporter Assay IC50” value stood at 1.82 nM.

B23: PR302341-4 (antibody, human IgG1, kappa, V domains shown)
VH: B7 VH
VL: B7 VL with S7T, L11S, F41Y, S48P, R51L, S72A, V88L
As for B23, in test [1], the “hCRHR1 Luciferase Reporter Assay IC50” value was found to be 0.107 nM.

B24: PR302341-29 (antibody, human IgG1, kappa, V domains shown)
VH: B1 VH with G56A, R72V, T74K, T76I, V79A, S85R, E89D
VL: B7 VL with F41Y, R51L, V88L
With B24, in test [2], the “hCRHR1 Luciferase Reporter Assay IC50” value was 0.427 nM and the “mCrhr1 Luciferase Reporter Assay IC50” value was determined as 1.39 nM.

B25: PR302341-66 (antibody, human IgG1, kappa, V domains shown)
VH: B1 VH with G44R, N55Q, M70I, T76A, V79A
VL: B7 VL with D33S, F41Y, R51L, V88L
B25: the “hCRHR1 Luciferase Reporter Assay IC50” value in test [2] worked out at 4.13 nM.

B26: PR302341-39 (antibody, human IgG1, kappa, V domains shown)
VH: B1 VH with G56A, R72V, T74K, T76I, V79A, S85R, E89D
VL: B7 VL with D33S, F41Y, R51L, V88L
Turning to B26, the “hCRHR1 Luciferase Reporter Assay IC50” value in test [2] came out at 1.04 nM.

B27: PR302341-21 (antibody, human IgG1, kappa, V domains shown)
VH: B1 VH with G44R, M70I, R72V, T74K, T76A, V79A
VL: B7 VL with F41Y, R51L, V88L
For B27, in test [1], the “hCRHR1 Luciferase Reporter Assay IC50” value was determined as 0.177 nM and the “mCrhr1 Luciferase Reporter Assay IC50” value is 0.541 nM.

B28: PR302341-5 (antibody, human IgG1, kappa, V domains shown)
VH: B7 VH
VL: B7 VL with V2I, S7T, P12S, L15P, F41Y, Q42L, R44K, R50Q, R51L
On to B28, for which, in test [1], the “hCRHR1 Luciferase Reporter Assay IC50” value came to 0.73 nM.

B29: PR302341-42 (antibody, human IgG1, kappa, V domains shown)
VH: B1 VH with R72V, T74K, T76I, V79A, S85R, E89D
VL: B7 VL with D33S, F41Y, R51L, V88L
In the case of B29, the “hCRHR1 Luciferase Reporter Assay IC50” value in test [2] worked out at 1.98 nM.

B30: PR302341-38 (antibody, human IgG1, kappa, V domains shown)
VH: B1 VH with N55Q, R72V, T74K, T76I, V79A, S85R, E89D
VL: B7 VL with D33S, F41Y, R51L, V88L
B30: the “hCRHR1 Luciferase Reporter Assay IC50” value in test [2] is 1.78 nM.

B31: PR302341-2 (antibody, human IgG1, kappa, V domains shown)
VH: B7 VH
VL: B7 VL with F41Y, R51L, V88L
Turning to B31, the “hCRHR1 Luciferase Reporter Assay IC50” value in test [1] amounted to 0.168 nM.

B32: PR302341-7 (antibody, human IgG1, kappa, V domains shown)
VH: B1 VH with R72V, T74K, V79A
VL: B7 VL
With B32, in test [1], the “hCRHR1 Luciferase Reporter Assay IC50” value stood at 0.23 nM.

B33: PR302341-3 (antibody, human IgG1, kappa, V domains shown)
VH: B7 VH
VL: B7 VL with V2I, S7T, L11S, F41L, S48P, R51L, S72A
For B33, the “hCRHR1 Luciferase Reporter Assay IC50” value in test [1] was determined as 0.128 nM.

B34: PR302341-9 (antibody, human IgG1, kappa, V domains shown)
VH: B1 VH with R72V, T74K, V79A
VL: B7 VL with V2I, S7T, L11S, F41L, S48P, R51L, S72A
For B34, in test [1], the “hCRHR1 Luciferase Reporter Assay IC50” value was found to be 0.234 nM.

B35: PR302341-72 (antibody, human IgG1, kappa, V domains shown)
VH: B1 VH with G44R, M70I, T76A, V79A
VL: B7 VL with D33S, F41Y, R51L, V88L
As for B35, the “hCRHR1 Luciferase Reporter Assay IC50” value in test [2] worked out at 1.73 nM.

B36: PR302341-6 (antibody, human IgG1, kappa, V domains shown)
VH: B7 VH
VL: B7 VL with S7T, P12S, L15P, F41Y, Q42L, R44K, R50Q, R51L, V88L
As to B36, in test [1], the “hCRHR1 Luciferase Reporter Assay IC50” value came to 0.363 nM.

B37: PR302341-19 (antibody, human IgG1, kappa, V domains shown)
VH: B1 VH
VL: B7 VL with F41Y, R51L, V88L
For the molecule B37, in test [1], the “hCRHR1 Luciferase Reporter Assay IC50” value turned out to be 0.121 nM and the “mCrhr1 Luciferase Reporter Assay IC50” value stood at 0.365 nM.

B38: PR302341-36 (antibody, human IgG1, kappa, V domains shown)
VH: B1 VH with N55S, R72V, T74K, T76I, V79A, S85R, E89D
VL: B7 VL with D33E, F41Y, R51L, V88L
Take B38: the “hCRHR1 Luciferase Reporter Assay IC50” value in test [2] was 1.77 nM.

B39: PR302341-35 (antibody, human IgG1, kappa, V domains shown)
VH: B1 VH with G56A, R72V, T74K, T76I, V79A, S85R, E89D
VL: B7 VL with D33E, F41Y, R51L, V88L
For B39, in test [2], the “hCRHR1 Luciferase Reporter Assay IC50” value stood at 1.75 nM.
